This is an account of results in publication PMC314469, “Protein Interaction Networks by Proteome Peptide Scanning” (PLoS Biology, 2004).

The labels stand for the following.
T1: Rvs167 SH3 (RV167_YEAST), P39743
T1 chain: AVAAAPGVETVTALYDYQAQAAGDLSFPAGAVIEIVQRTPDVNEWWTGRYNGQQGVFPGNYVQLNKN

T2: Yhr016c SH3 (YSC84_YEAST), P32793
T2 chain: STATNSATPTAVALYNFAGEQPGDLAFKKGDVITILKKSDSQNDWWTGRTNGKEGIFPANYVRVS

T3: Yfr024 SH3 (LSB3_YEAST), P43603
T3 chain: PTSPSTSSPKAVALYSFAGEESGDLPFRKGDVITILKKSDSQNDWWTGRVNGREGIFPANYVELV

T4: Myo5 SH3 (MYO5_YEAST), Q04439
T4 chain: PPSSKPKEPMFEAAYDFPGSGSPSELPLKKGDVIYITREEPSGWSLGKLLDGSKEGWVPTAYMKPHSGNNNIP

T5: Boi2 SH3 (BOI2_YEAST), P39969
T5 chain: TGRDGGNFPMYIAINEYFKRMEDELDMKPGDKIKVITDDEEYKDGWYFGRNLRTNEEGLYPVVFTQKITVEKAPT

T6: Boi1 SH3 (BOI1_YEAST), P38041
T6 chain: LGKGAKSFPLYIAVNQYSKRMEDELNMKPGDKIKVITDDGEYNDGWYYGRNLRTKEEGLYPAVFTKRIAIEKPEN

The target in the first assay is T1, Rvs167 SH3 (RV167_YEAST), P39743. Briefly: SPOT array.
Regarding EKYGKDQPESPVPE [YMR285C 368-381], the normalised SPOT signal, Boehringer light units (BLU); mean over the file's lines of this peptide amounted to 41.8.
Same read-out and setting: next, EKELKEGPSSPASI [YJL076W 376-389]: 41.1; EKVFRGDPEHPAIS [YJR010W 130-143]: 66.3; ENENKKLPPAPTVF [YKR103W 236-249]: 22.
On the same count and under the same terms, next, ELQIRYKPTPPLKK [YPL074W 331-344]: 188; EKESRHYPIKPPSP [YMR147W 121-134]: 72.2; ERDGRGVPLGPRNH [YGL023C 22-35]: 35.7.
The same measure, in the same setting: the result for ELDIKQGPVRPFIV [YDL095W 18-31] reads 24.5; that for EKNARGIPQAPFIE [YGR078C 9-22], 33.4; that for EKLIKITPDTPFGF [YOR340C 102-115], 46.5.
As to ELDTKTIPELPFSM [YJR092W 117-130], the normalised SPOT signal, Boehringer light units (BLU); mean over the file's lines of this peptide was 98.8.

For the next assay, the target named is Sho1 SH3 (SHO1_YEAST), P40073. Briefly: SPOT array.
Sequence of Sho1 SH3 (SHO1_YEAST), P40073 (P40073 295-366): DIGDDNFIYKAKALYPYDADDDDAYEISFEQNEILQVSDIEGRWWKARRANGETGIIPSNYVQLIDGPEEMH
In turn, EKYGKDQPESPVPE [YMR285C 368-381] returned a normalised SPOT signal, Boehringer light units (BLU); mean over the file's lines of this peptide of 66.3.
Same read-out and setting: next, EKELKEGPSSPASI [YJL076W 376-389]: 61.7; EKVFRGDPEHPAIS [YJR010W 130-143]: 75.6; ENENKKLPPAPTVF [YKR103W 236-249]: 3520.
On the same count and under the same terms, the result for ELQIRYKPTPPLKK [YPL074W 331-344] reads 76.5; that for EKESRHYPIKPPSP [YMR147W 121-134], 44.6.
Still for that read-out and setting: next, ERDGRGVPLGPRNH [YGL023C 22-35]: 38; ELDIKQGPVRPFIV [YDL095W 18-31]: 27.9; EKNARGIPQAPFIE [YGR078C 9-22]: 24.1.
With EKLIKITPDTPFGF [YOR340C 102-115], the normalised SPOT signal, Boehringer light units (BLU); mean over the file's lines of this peptide came out at 36.8.
Same read-out and setting: next, ELDTKTIPELPFSM [YJR092W 117-130]: 44.1.

The target in another assay is T2, Yhr016c SH3 (YSC84_YEAST), P32793. The assay can be described thus: SPOT array.
The molecule EKYGKDQPESPVPE [YMR285C 368-381] yielded a normalised SPOT signal, Boehringer light units (BLU); mean over the file's lines of this peptide of 1.6.
As for EKELKEGPSSPASI [YJL076W 376-389], the normalised SPOT signal, Boehringer light units (BLU); mean over the file's lines of this peptide was 28.2.
Same read-out and setting: next, EKVFRGDPEHPAIS [YJR010W 130-143]: 67.9.
Still for that read-out and setting: the result for ENENKKLPPAPTVF [YKR103W 236-249] reads 24.6; that for ELQIRYKPTPPLKK [YPL074W 331-344], 42.2; that for EKESRHYPIKPPSP [YMR147W 121-134], 39.7.
On the same count and under the same terms, the result for ERDGRGVPLGPRNH [YGL023C 22-35] reads 50.2; that for ELDIKQGPVRPFIV [YDL095W 18-31], 17.8; that for EKNARGIPQAPFIE [YGR078C 9-22], 42.5.
The molecule EKLIKITPDTPFGF [YOR340C 102-115] yielded a normalised SPOT signal, Boehringer light units (BLU); mean over the file's lines of this peptide of 34.6.
Still for that read-out and setting: next, ELDTKTIPELPFSM [YJR092W 117-130]: 12.8.

A further assay concerns the target T3, Yfr024 SH3 (LSB3_YEAST), P43603. Briefly: SPOT array.
The molecule EKYGKDQPESPVPE [YMR285C 368-381] registered a normalised SPOT signal, Boehringer light units (BLU); mean over the file's lines of this peptide of 0.
Still for that read-out and setting: next, EKELKEGPSSPASI [YJL076W 376-389]: 0; EKVFRGDPEHPAIS [YJR010W 130-143]: 48.5; ENENKKLPPAPTVF [YKR103W 236-249]: 16.2.
ELQIRYKPTPPLKK [YPL074W 331-344] gave a normalised SPOT signal, Boehringer light units (BLU); mean over the file's lines of this peptide of 930.
Same read-out and setting: next, EKESRHYPIKPPSP [YMR147W 121-134]: 31.6; ERDGRGVPLGPRNH [YGL023C 22-35]: 643.
ELDIKQGPVRPFIV [YDL095W 18-31] displayed a normalised SPOT signal, Boehringer light units (BLU); mean over the file's lines of this peptide of 41.1.
The same measure, in the same setting: next, EKNARGIPQAPFIE [YGR078C 9-22]: 202.
On the same count and under the same terms, the result for EKLIKITPDTPFGF [YOR340C 102-115] reads 61.9; that for ELDTKTIPELPFSM [YJR092W 117-130], 27.4.

In a further assay the target is T4, Myo5 SH3 (MYO5_YEAST), Q04439. Briefly: SPOT array.
EKYGKDQPESPVPE [YMR285C 368-381] came in with a normalised SPOT signal, Boehringer light units (BLU); mean over the file's lines of this peptide of 143.
The same measure, in the same setting: next, EKELKEGPSSPASI [YJL076W 376-389]: 208.
The same measure, in the same setting: the result for EKVFRGDPEHPAIS [YJR010W 130-143] reads 90.
Still for that read-out and setting: next, ENENKKLPPAPTVF [YKR103W 236-249]: 67.7; ELQIRYKPTPPLKK [YPL074W 331-344]: 171.
EKESRHYPIKPPSP [YMR147W 121-134] gave a normalised SPOT signal, Boehringer light units (BLU); mean over the file's lines of this peptide of 180.
In turn, ERDGRGVPLGPRNH [YGL023C 22-35] yielded a normalised SPOT signal, Boehringer light units (BLU); mean over the file's lines of this peptide of 121.
On the same count and under the same terms, next, ELDIKQGPVRPFIV [YDL095W 18-31]: 161.
Still for that read-out and setting: the result for EKNARGIPQAPFIE [YGR078C 9-22] reads 136.
On the same count and under the same terms, next, EKLIKITPDTPFGF [YOR340C 102-115]: 206; ELDTKTIPELPFSM [YJR092W 117-130]: 53.2.

Another assay deals with T5, Boi2 SH3 (BOI2_YEAST), P39969. Briefly: SPOT array.
For EKYGKDQPESPVPE [YMR285C 368-381], the normalised SPOT signal, Boehringer light units (BLU); mean over the file's lines of this peptide is 12.1.
On to EKELKEGPSSPASI [YJL076W 376-389], for which the normalised SPOT signal, Boehringer light units (BLU); mean over the file's lines of this peptide amounted to 13.1.
Same read-out and setting: next, EKVFRGDPEHPAIS [YJR010W 130-143]: 15.1.
Same read-out and setting: next, ENENKKLPPAPTVF [YKR103W 236-249]: 12.9.
Still for that read-out and setting: next, ELQIRYKPTPPLKK [YPL074W 331-344]: 17.3; EKESRHYPIKPPSP [YMR147W 121-134]: 20.2; ERDGRGVPLGPRNH [YGL023C 22-35]: 25.
Turning to ELDIKQGPVRPFIV [YDL095W 18-31], the normalised SPOT signal, Boehringer light units (BLU); mean over the file's lines of this peptide is 33.2.
EKNARGIPQAPFIE [YGR078C 9-22] registered a normalised SPOT signal, Boehringer light units (BLU); mean over the file's lines of this peptide of 10.5.
On the same count and under the same terms, next, EKLIKITPDTPFGF [YOR340C 102-115]: 19.1; ELDTKTIPELPFSM [YJR092W 117-130]: 24.8.

The next assay addresses T6, Boi1 SH3 (BOI1_YEAST), P38041. The assay can be described thus: SPOT array.
Molecule EKYGKDQPESPVPE [YMR285C 368-381] yielded a normalised SPOT signal, Boehringer light units (BLU); mean over the file's lines of this peptide of 62.1.
Still for that read-out and setting: next, EKELKEGPSSPASI [YJL076W 376-389]: 46.3; EKVFRGDPEHPAIS [YJR010W 130-143]: 17400.
The same measure, in the same setting: next, ENENKKLPPAPTVF [YKR103W 236-249]: 50.9.
ELQIRYKPTPPLKK [YPL074W 331-344] gave a normalised SPOT signal, Boehringer light units (BLU); mean over the file's lines of this peptide of 87.9.
EKESRHYPIKPPSP [YMR147W 121-134]: the normalised SPOT signal, Boehringer light units (BLU); mean over the file's lines of this peptide was 64.2.
Consider ERDGRGVPLGPRNH [YGL023C 22-35], for which the normalised SPOT signal, Boehringer light units (BLU); mean over the file's lines of this peptide came to 370.
Same read-out and setting: the result for ELDIKQGPVRPFIV [YDL095W 18-31] reads 86.2.
EKNARGIPQAPFIE [YGR078C 9-22] had a normalised SPOT signal, Boehringer light units (BLU); mean over the file's lines of this peptide of 48.1.
Molecule EKLIKITPDTPFGF [YOR340C 102-115] yielded a normalised SPOT signal, Boehringer light units (BLU); mean over the file's lines of this peptide of 0.
The same measure, in the same setting: next, ELDTKTIPELPFSM [YJR092W 117-130]: -0.
